Results on four molecules are retold here after paper PMC9722607 (Structure (London, England : 1993), 2022).

In general, stoichiometry N refers to a count of units in the complex or per binding partner.

B4: 6x-His-tagged PqsE (wild type) (enzyme)
chain: MLRLSAPGQLDDDLCLLGDVQVPVFLLRLGEASWALVEGGISRDAELVWADLCRWVADPSQVHYWLITHKHYDHCGLLPYLCPRLPNVQVLASERTCQAWKSESAVRVVERLNRQLLRAEQRLPEACAWDALPVRAVADGEWLELGPRHRLQVIEAHGHSDDHVVFYDVRRRRLFCGDALGEFDEAEGVWRPLVFDDMEAYLESLERLQRLPTLLQLIPGHGGLLRGRLAADGAESAYTECLRLCRRLLWRQSMGESLDELSEELHRAWGGQSVDFLPGELHLGSMRRMLEILSRQALPLD

The data set “cryo-EM structure” concerns the molecule itself. In words: cryo-EM structure.
In data set [1] the target is B4. In words: pull-down.

B1: RhlR (wild type, untagged, bound to mBTL) (natural protein)
chain: MRNDGGFLLWWDGLRSEMQPIHDSQGVFAVLEKEVRRLGFDYYAYGVRHTIPFTRPKTEVHGTYPKAWLERYQMQNYGAVDPAILNGLRSSEMVVWSDSLFDQSRMLWNEARDWGLCVGATLPIRAPNNLLSVLSVARDQQNISSFEREEIRLRLRCMIELLTQKLTDLEHPMLMSNPVCLSHREREILQWTADGKSSGEIAIILSISESTVNFHHKNIQKKFDAPNKTLAAAYAAALGLI
For the molecule B1, the “stoichiometry N” value in “cryo-EM structure” stood at 2.

B2: RhlR F53A (natural protein)
chain: MRNDGGFLLWWDGLRSEMQPIHDSQGVFAVLEKEVRRLGFDYYAYGVRHTIPATRPKTEVHGTYPKAWLERYQMQNYGAVDPAILNGLRSSEMVVWSDSLFDQSRMLWNEARDWGLCVGATLPIRAPNNLLSVLSVARDQQNISSFEREEIRLRLRCMIELLTQKLTDLEHPMLMSNPVCLSHREREILQWTADGKSSGEIAIILSISESTVNFHHKNIQKKFDAPNKTLAAAYAAALGLI
For B2, the “efficacy of binding relative to WT RhlR” value in data set [1] was found to be 50%.

B3: RhlR C157S (natural protein)
chain: MRNDGGFLLWWDGLRSEMQPIHDSQGVFAVLEKEVRRLGFDYYAYGVRHTIPFTRPKTEVHGTYPKAWLERYQMQNYGAVDPAILNGLRSSEMVVWSDSLFDQSRMLWNEARDWGLCVGATLPIRAPNNLLSVLSVARDQQNISSFEREEIRLRLRSMIELLTQKLTDLEHPMLMSNPVCLSHREREILQWTADGKSSGEIAIILSISESTVNFHHKNIQKKFDAPNKTLAAAYAAALGLI
With B3, the “efficacy of binding relative to WT RhlR” value in data set [1] stood at 70%.

For the molecule B4, the “stoichiometry N” value in “cryo-EM structure” is 2.
